Data as given in paper PMC12700558, “Aggregation shifts amyloid-β peptides from synaptogenic to synaptotoxic” (The Journal of Clinical Investigation, 2025).
Entries after “also recorded” stand apart in the source; their conditions may differ.

Assays:
[1] = Native PAGE and immunoblotting of the aggregation state of Aβ peptides; assay type: physicochemical; settings: stock solutions incubated at 37°C for 60 or 90 minutes, native PAGE, immunoblot 4G8 / Abcam 126892
Protocol: To assess the aggregation state of Aβ peptides in stock solutions, we performed native polyacrylamide gel electrophoresis (PAGE) followed by immunoblotting. Stock solutions of Aβ peptides were incubated at 37°C for 1.5 and/or 1 hours to promote aggregate formation. After incubation, samples were diluted 1:2 with native PAGE sample buffer to maintain nondenaturing conditions. The samples were loaded onto 4%–15% gradient polyacrylamide Criterion gels (Bio-Rad), which allow for the separation of proteins across a wide range of molecular weights under native conditions. Electrophoresis was conducted using Tris-Glycine buffer at 4°C for 3 hours to preserve the native structure of the peptide aggregates during separation. A constant voltage appropriate for native PAGE was applied throughout the run ([49]). Following electrophoresis, proteins were transferred onto Nitrocellulose (0.45 μm) membranes using a semidry transfer apparatus optimized for proteins of mixed molecular weights. The transfer was performed according to the manufacturer’s instructions, ensuring efficient transfer of both low and high molecular weight species. Membranes were blocked with 5% BSA (GeminiBio) in Tris-buffered saline with 0.1% Tween-20 (TBST) at room temperature for 1 hour to prevent nonspecific antibody binding. […] Blots were imaged using the Odyssey Infrared Imager CLX and analyzed using Image Study 5.2.5. […]

[2] = test system: human neurons cocultured with mouse glia; test: Quantification of 6E10-positive Aβ aggregates in human neuron cultures; assay type: cell-based; settings: for Density of 6E10-positive structures (number of structures per area of field of view) / Size of 6E10-positive structures (area fraction of the field of view occupied by aggregates): human neurons/mouse glia, DIV25
Protocol: Mature human iN cells were washed 3 times with PBS (Gibco) and fixed with 4% PFA (Electron Microscopy Science) and 4% sucrose (Sigma-Aldrich) in PBS for 10 minutes at room temperature. Cells were then washed three times with PBS, followed by permeabilization and blocking with 0.25% Triton-X-100 (Sigma-Aldrich), 2.5% bovine serum albumin (BSA) (GeminiBio) and 2,5% NGS (Sigma-Aldrich) for one hour at room temperature. Incubation with primary antibodies was performed overnight at 4°C in the corresponding blocking buffer ([41]). For endosome analyses, fixing solution contained only 4% PFA and the permeabilization was performed separately before the blocking step, using 0.1% Triton-X-100. Primary Antibodies used include rabbit monoclonal anti-Synapsin-1 (Yenzym antibodies, clone YZ6078, 1:1000 dilution), mouse monoclonal anti-PSD95 (Thermo Fisher Scientific, 7E3-1B8, 1:250 dilution), chicken polyclonal anti-MAP2 (EnCor, CPCA-MAP2, 1:1000 dilution), mouse monoclonal 6E10 (BioLegend, SIG-39320, 1:1000), rabbit monoclonal anti-Synaptophysin (homemade, P580 ([26])), and rabbit monoclonal anti-EEA1(Cell Signaling, C45B10, 1:1000 dilution). Cells were washed 3 times with PBS and incubated for 1 hour at room temperature with Alexa conjugated secondary antibodies: goat anti-chicken Alexa 647, goat anti-rabbit Alexa 546, goat anti-rabbit Alexa 488, and goat anti-mouse Alexa 488, all 1:500. Coverslips were washed once with PBS and once with water to remove salts before mounting, then were mounted using Fluoromount (with DAPI) (Thermo Fisher Scientific, 00-4959-52) on glass slides. All images were taken with the Nikon A1RSi confocal microscope (Nikon Instruments Inc.) for analysis of synaptic puncta using Nikon Analysis Software.
To quantify the density and size of 6E10-immunopositive aggregates, we acquired high-resolution confocal images at 60x magnification using a Nikon Eclipse Ti microscope (Nikon, Japan). All fluorescence parameters, including laser power and detector settings, were held constant throughout image acquisition to ensure comparability across samples. We then processed and analyzed the resulting images with Nikon Analysis Software, employing standardized thresholds for object detection. For analyses conducted in human neurons, the density of 6E10-positive aggregates was determined by calculating the number of discrete objects per unit area of the imaged field. In contrast, for analyses in primary neurons, we recorded the total number of discrete objects within each field. In both cases, we measured particle size as the fraction of the total field occupied by 6E10-positive signals, using a binary region of interest encompassing the entire field of view. This approach allowed for consistent, unbiased quantification of both the distribution and relative size of immunofluorescent aggregates under different experimental conditions.

[3] = 0.1uM chronic, biological replicate 1
[4] = 0.1uM chronic, biological replicate 2
[5] = 0.1uM chronic, biological replicate 3
[6] = 0.2uM chronic, biological replicate 1
[7] = 0.2uM chronic, biological replicate 2
[8] = 0.2uM chronic, biological replicate 3

## -.DAEFRHDSGYEVHHQKLVFFAGDVGSNKGAIIGLMVGGVVI.A [Aβ42^arctic]
[1]
  Aggregation state in native gel analyses (in words): completely aggregated even at lower concentrations; also recorded: quantitatively aggregated
[2]; [3]
  Density of 6E10-positive structures (number of structures per area of field of view): 0.009289
  Size of 6E10-positive structures (area fraction of the field of view occupied by aggregates): 0.02043
[2]; [4]
  Density of 6E10-positive structures (number of structures per area of field of view): 0.01336
  Size of 6E10-positive structures (area fraction of the field of view occupied by aggregates): 0.034
[2]; [5]
  Density of 6E10-positive structures (number of structures per area of field of view): 0.01613
  Size of 6E10-positive structures (area fraction of the field of view occupied by aggregates): 0.04071
[2]; [6]
  Density of 6E10-positive structures (number of structures per area of field of view): 0.03615
  Size of 6E10-positive structures (area fraction of the field of view occupied by aggregates): 0.05614
[2]; [7]
  Density of 6E10-positive structures (number of structures per area of field of view): 0.04641
  Size of 6E10-positive structures (area fraction of the field of view occupied by aggregates): 0.04714
[2]; [8]
  Density of 6E10-positive structures (number of structures per area of field of view): 0.06233
  Size of 6E10-positive structures (area fraction of the field of view occupied by aggregates): 0.04014
[2]; chronic exposure, immunofluorescence with 6E10 antibody
  6E10-positive Aβ aggregates in treated human neurons (in words): significant 6E10-positive Aβ aggregates
